B1: N-acetyllactosaminide beta-1,3-N-acetylglucosaminyltransferase 2 (Homo sapiens), Q9NY97 (parent)
chain: MSVGRRRIKLLGILMMANVFIYFIMEVSKSSSQEKNGKGEVIIPKEKFWKISTPPEAYWNREQEKLNRQYNPILSMLTNQTGEAGRLSNISHLNYCEPDLRVTSVVTGFNNLPDRFKDFLLYLRCRNYSLLIDQPDKCAKKPFLLLAIKSLTPHFARRQAIRESWGQESNAGNQTVVRVFLLGQTPPEDNHPDLSDMLKFESEKHQDILMWNYRDTFFNLSLKEVLFLRWVSTSCPDTEFVFKGDDDVFVNTHHILNYLNSLSKTKAKDLFIGDVIHNAGPHRDKKLKYYIPEVVYSGLYPPYAGGGGFLYSGHLALRLYHITDQVHLYPIDDVYTGMCLQKLGLVPEKHKGFRTFDIEEKNKNNICSYVDLMLVHSRKPQEMIDIWSQLQSAHLKC
partner: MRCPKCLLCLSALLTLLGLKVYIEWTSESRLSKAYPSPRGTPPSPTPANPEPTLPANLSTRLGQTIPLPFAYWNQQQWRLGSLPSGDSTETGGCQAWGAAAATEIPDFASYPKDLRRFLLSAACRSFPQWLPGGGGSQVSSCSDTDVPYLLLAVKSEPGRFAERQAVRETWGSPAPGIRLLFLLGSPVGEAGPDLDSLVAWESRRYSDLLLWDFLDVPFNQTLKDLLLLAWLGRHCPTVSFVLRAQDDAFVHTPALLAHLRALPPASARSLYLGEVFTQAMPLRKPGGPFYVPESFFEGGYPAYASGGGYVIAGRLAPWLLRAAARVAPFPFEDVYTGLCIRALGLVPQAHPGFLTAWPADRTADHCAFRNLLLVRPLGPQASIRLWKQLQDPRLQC
B2: "UDP-GlcNAc:betaGal beta-1,3-N-acetylglucosaminyltransferase 8" (Homo sapiens), Q7Z7M8 (parent)
chain: B1 partner
partner: B1 chain

Variants of: B1
Conditions: with B3GNT8, Q7Z7M8

effect of a mutation on the interaction | Variant
with no effect | D245A

Variants of: B2
Conditions: with B3GNT2, Q9NY97

effect of a mutation on the interaction | Variant
with no effect | Q246A

From IntAct's records for PubMed 18826941
